The text below walks through data of US20170267972A1 (published 2017).

Experiment [1] has as its target T1, WT1 (modified form of the WT1 peptide) peptide on HLA-A*24:02 (human).
T1 peptide: CYTWNQMNL
Put plainly: killing.

For experiment [2], the target named is T2, LMP2 (Epstein-Barr virus latent membrane protein 2) peptide on HLA-A*24:02 (human).
T2 peptide: IYVLVMLVL
The experiment in a line: multimer staining.

B1: TCR of clone WT1#3-3 (TCR)
alpha TRAV12-1*01 TRAJ9*01 CDR3: CVVRGGGFKTIF
beta TRBV20-1*01 TRBJ2-6*01 CDR3: CSARAGTGGANVLTF
For B1, the binding result in experiment [1] is “recognises”.

B2: TCR of clone LMP2#1 (TCR)
alpha TRAV26-1*01 TRAJ34*01 CDR3: CIVTRFYTDKLIF
beta TRBV14*02 TRBJ2-1*01 CDR3: CASSSPGSRPYNEQFF
In the case of B2, the binding result in experiment [2] is “recognises”.
